# Literature values in US5362858A, “Polyethylene glycol-hirudin conjugates, process for preparing them and their use for the treatment of thromboses” (Transgene S.A., priority 1992, dated 1994).
# Conditions: removal from the bloodstream
substance,measurement,value
hirudin,half-life period,about 1 h
